According to paper PMC12084609, “Structural insights into small-molecule agonist recognition and activation of complement receptor C3aR” (The EMBO Journal, 2025):
Positions count from the first letter of the chain named. Where “and” joins values, the source holds several entries; their conditions need not be identical. Equal values may be shown once. Read-outs that look alike come from different tables or passages of the source.

Columns and labels:
Format in all cases: cell-based
[1] = molecular target: T1, C3aR I102^3.32A/I421^7.39A (Homo sapiens, UniProt Q16581, I102A/I421A); test: GloSensor-based cAMP assay, C3aR double mutant I102A/I421A; conditions: for cAMP response (% Forskolin): single replicates; for ΔpIC50 ± SE of Diff.: I102^3.32A/I421^7.39A relative to WT C3aR
T1 construct: expressed in transfected cells; host or cells: HEK293T
T1 sequence (Q16581 1-482 I102A/I421A): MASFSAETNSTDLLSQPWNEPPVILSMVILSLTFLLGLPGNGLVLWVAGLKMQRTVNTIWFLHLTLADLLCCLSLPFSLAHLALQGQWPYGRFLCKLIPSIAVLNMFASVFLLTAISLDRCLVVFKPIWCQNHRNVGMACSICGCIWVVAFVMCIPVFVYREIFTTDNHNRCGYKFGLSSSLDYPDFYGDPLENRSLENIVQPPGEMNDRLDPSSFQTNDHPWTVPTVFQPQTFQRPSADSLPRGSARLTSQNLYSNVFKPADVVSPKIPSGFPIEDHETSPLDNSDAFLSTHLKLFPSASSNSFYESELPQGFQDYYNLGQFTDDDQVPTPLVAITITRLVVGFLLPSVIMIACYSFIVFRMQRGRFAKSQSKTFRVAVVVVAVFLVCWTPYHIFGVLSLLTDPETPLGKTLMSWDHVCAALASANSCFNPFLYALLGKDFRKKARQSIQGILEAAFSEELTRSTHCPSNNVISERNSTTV
Protocol: (§1) HEK293T cells were seeded on 6-well plates (NEST) and transfected with pGlosensor™-22F plasmids (Promega) and pcDNA3.1 plasmids encoding C3aR or its mutants an with N-terminal FLAG tag. After 48 h, cells were detached with Accutase solution (Sigma-Aldrich) and washed with PBS, and resuspended in assay buffer (CO2-independent medium with 0.5 mg mL^−1D-luciferin). 100,000–200,000 cells were seeded on 96-well white bottom plates (SPL) and incubated at 37 °C for 45 min followed by 45 min incubation at room temperature. After 90 min of incubation, basal luminescence signals were recorded. In total, 25 μl of test ligand with various concentrations and 1 μM Forskolin (Sigma-Aldrich) were treated to the cells and luminescence signals were measured by Tristar 2 LB 942 multimode reader (Berthold). […] Relative luminescence unit (%) was calculated with the signal of wells treated with vehicle as 0% and the signal of wells treated with 1 μM Forskolin as 100% (DiRaddo et al, [2014]). Nonlinear regression was performed using a three-parameter logistic equation.

C3aR L30^1.39A = molecular target: T2, C3aR L30^1.39A (Homo sapiens, UniProt Q16581, L30A); test: GloSensor-based cAMP assay, C3aR mutant L30A; conditions: for Mean Diff. of pIC50, WT vs. L30A: Dunnett's multiple comparisons test, WT minus mutant; for ΔpIC50 ± SE of Diff.: L30^1.39A relative to WT C3aR; for cAMP response (% Forskolin): L301.39A
T2 construct: expressed in transfected cells; host or cells: HEK293T
T2 sequence (Q16581 1-482 L30A): T1 sequence (Q16581 1-482 I102A/I421A) with L30A, A102I, A421I
Protocol: as §1

C3aR I98^3.28A = molecular target: T3, C3aR I98^3.28A (Homo sapiens, UniProt Q16581, I98A); test: GloSensor-based cAMP assay, C3aR mutant I98A; conditions: for Mean Diff. of pIC50, WT vs. I98A: Dunnett's multiple comparisons test, WT minus mutant; for ΔpIC50 ± SE of Diff.: I98^3.28A relative to WT C3aR; for cAMP response (% Forskolin): I983.28A
T3 construct: expressed in transfected cells; host or cells: HEK293T
T3 sequence (Q16581 1-482 I98A): T1 sequence (Q16581 1-482 I102A/I421A) with I98A, A102I, A421I
Protocol: as §1

[2] = Log[C3a (M)] -7, single replicates
[3] = Log[C3a (M)] -8, single replicates
[4] = Log[C3a (M)] -9, single replicates
[5] = Log[C3a (M)] -10, single replicates
[6] = Log[C3a (M)] -11, single replicates
[7] = Log[C3a (M)] -12, single replicates

## C3a: anaphylatoxin C3a, natural peptide ligand of C3aR (a 77-amino acid peptide), Sigma-Aldrich
[1]; I102A/I421A, Log[C3a (M)] -7
  cAMP response (% Forskolin): 60.33 % Forskolin and 51.98 % Forskolin and 58.06 % Forskolin
[1]; I102A/I421A, Log[C3a (M)] -8
  cAMP response (% Forskolin): 94.58 % Forskolin and 89.45 % Forskolin and 91.46 % Forskolin
[1]; I102A/I421A, Log[C3a (M)] -9
  cAMP response (% Forskolin): 96.12 % Forskolin and 94.02 % Forskolin and 96.29 % Forskolin
[1]; I102A/I421A, Log[C3a (M)] -10
  cAMP response (% Forskolin): 100.40 % Forskolin and 98.48 % Forskolin and 97.75 % Forskolin
[1]; I102A/I421A, Log[C3a (M)] -11
  cAMP response (% Forskolin): 101.76 % Forskolin and 98.75 % Forskolin and 98.69 % Forskolin
[1]; I102A/I421A, Log[C3a (M)] -12
  cAMP response (% Forskolin): 99.03 % Forskolin and 95.31 % Forskolin and 95.64 % Forskolin
[1]
  ΔpIC50 ± SE of Diff.: -0.51 ± 0.05
[1]; I102^3.32A/I421^7.39A, dose-response plot, read-out: IC50
  IC50: 10.1 nM
[1]; I102^3.32A/I421^7.39A, individual replicates
  pIC50 (Replicate): 8.09 and 7.94 and 7.95
[1]; I102^3.32A/I421^7.39A, mean of independent experiments
  pIC50 ± SEM (Mean): 7.99
[1]; I1023.32A/I4217.39A, Log[C3a (M)] -7
  cAMP response (% Forskolin): 17.14 % Forskolin and 17.92 % Forskolin and 21.78 % Forskolin
[1]; I1023.32A/I4217.39A, Log[C3a (M)] -8
  cAMP response (% Forskolin): 50.03 % Forskolin and 58.06 % Forskolin and 57.92 % Forskolin
[1]; I1023.32A/I4217.39A, Log[C3a (M)] -9
  cAMP response (% Forskolin): 101.91 % Forskolin and 104.37 % Forskolin and 102.64 % Forskolin
[1]; I1023.32A/I4217.39A, Log[C3a (M)] -10
  cAMP response (% Forskolin): 108.19 % Forskolin and 105.12 % Forskolin and 103.38 % Forskolin
[1]; I1023.32A/I4217.39A, Log[C3a (M)] -11
  cAMP response (% Forskolin): 107.31 % Forskolin and 106.77 % Forskolin and 101.12 % Forskolin
[1]; I1023.32A/I4217.39A, Log[C3a (M)] -12
  cAMP response (% Forskolin): 98.25 % Forskolin and 100.53 % Forskolin and 100.03 % Forskolin
C3aR L30^1.39A
  Mean Diff. of pIC50, WT vs. L30A: -0.019
  ΔpIC50 ± SE of Diff.: 0.019 ± 0.009
C3aR L30^1.39A; L30^1.39A, dose-response plot, read-out: IC50
  IC50: 2.77 nM
C3aR L30^1.39A; L30^1.39A, individual replicates
  pIC50 (Replicate): 8.56 and 8.70 and 8.57 and 8.44
C3aR L30^1.39A; L30^1.39A, mean of independent experiments
  pIC50 ± SEM (Mean): 8.57 ± 0.05 and 8.57
C3aR L30^1.39A; [2]
  cAMP response (% Forskolin): 9.08 % Forskolin and 11.83 % Forskolin and 11.69 % Forskolin and 11.40 % Forskolin
C3aR L30^1.39A; [3]
  cAMP response (% Forskolin): 10.54 % Forskolin and 13.47 % Forskolin and 12.71 % Forskolin and 14.92 % Forskolin
C3aR L30^1.39A; [4]
  cAMP response (% Forskolin): 79.63 % Forskolin and 73.91 % Forskolin and 80.93 % Forskolin and 94.77 % Forskolin
C3aR L30^1.39A; [5]
  cAMP response (% Forskolin): 98.57 % Forskolin and 99.49 % Forskolin and 94.04 % Forskolin and 99.72 % Forskolin
C3aR L30^1.39A; [6]
  cAMP response (% Forskolin): 93.76 % Forskolin and 102.28 % Forskolin and 98.92 % Forskolin (2×)
C3aR L30^1.39A; [7]
  cAMP response (% Forskolin): 93.05 % Forskolin and 98.36 % Forskolin and 95.43 % Forskolin and 98.17 % Forskolin
C3aR I98^3.28A
  Mean Diff. of pIC50, WT vs. I98A: 0.113
  ΔpIC50 ± SE of Diff.: -0.11 ± 0.02
C3aR I98^3.28A; I98^3.28A, dose-response plot, read-out: IC50
  IC50: 4.07 nM
C3aR I98^3.28A; I98^3.28A, individual replicates
  pIC50 (Replicate): 8.38 (2×) and 8.42 and 8.40 and 8.08 and 8.54 and 8.47
C3aR I98^3.28A; I98^3.28A, mean of independent experiments
  pIC50 ± SEM (Mean): 8.38 ± 0.05 and 8.38
C3aR I98^3.28A; [2]
  cAMP response (% Forskolin): 12.31 % Forskolin and 10.90 % Forskolin and 9.84 % Forskolin and 8.89 % Forskolin and 11.38 % Forskolin and 5.37 % Forskolin and 7.43 % Forskolin
C3aR I98^3.28A; [3]
  cAMP response (% Forskolin): 27.29 % Forskolin and 21.82 % Forskolin and 20.14 % Forskolin and 14.26 % Forskolin and 42.67 % Forskolin and 12.53 % Forskolin and 15.24 % Forskolin
C3aR I98^3.28A; [4]
  cAMP response (% Forskolin): 88.79 % Forskolin and 95.53 % Forskolin and 90.20 % Forskolin and 95.03 % Forskolin and 96.77 % Forskolin and 78.73 % Forskolin and 85.71 % Forskolin
C3aR I98^3.28A; [5]
  cAMP response (% Forskolin): 99.83 % Forskolin and 101.03 % Forskolin and 99.65 % Forskolin and 94.56 % Forskolin and 95.76 % Forskolin and 97.03 % Forskolin and 93.13 % Forskolin
C3aR I98^3.28A; [6]
  cAMP response (% Forskolin): 97.32 % Forskolin and 101.48 % Forskolin and 99.97 % Forskolin and 96.12 % Forskolin and 97.86 % Forskolin and 93.68 % Forskolin and 92.51 % Forskolin
C3aR I98^3.28A; [7]
  cAMP response (% Forskolin): 95.26 % Forskolin and 98.35 % Forskolin and 96.71 % Forskolin and 98.06 % Forskolin and 93.96 % Forskolin and 97.55 % Forskolin and 101.79 % Forskolin

## Cc1cc(C(c2ccc(Cl)cc2)c2ccc(Cl)cc2)sc1C(=O)N[C@@H](CCCNC(=N)N)C(=O)O [JR14a, reference compound]
[1]
  ΔpIC50 ± SE of Diff.: -2.34 ± 0.08
[1]; IC50, I102^3.32A/I421^7.39A, dose-response plot
  IC50: 1590 nM
[1]; pIC50 (Replicate), I102^3.32A/I421^7.39A, individual replicates
  IC50: 2450 nM and 1150 nM and 1740 nM
[1]; pIC50 ± SEM (Mean), I102^3.32A/I421^7.39A, mean of independent experiments
  IC50: 1700 nM
C3aR L30^1.39A
  Mean Diff. of pIC50, WT vs. L30A: 0.012
  ΔpIC50 ± SE of Diff.: -0.01 ± 0.01
C3aR L30^1.39A; IC50, L30^1.39A, dose-response plot
  IC50: 5.58 nM
C3aR L30^1.39A; L30A, Log[JR14a (M)] -6, single replicates, read-out: cAMP response (% Forskolin)
  remaining activity at 1 µM: 12.9%
C3aR L30^1.39A; L30A, Log[JR14a (M)] -7, single replicates, read-out: cAMP response (% Forskolin)
  remaining activity at 0.1 µM: 13.4%
C3aR L30^1.39A; L30A, Log[JR14a (M)] -9, single replicates, read-out: cAMP response (% Forskolin)
  remaining activity at 0.001 µM: 82.6%
C3aR L30^1.39A; L30A, Log[JR14a (M)] -10, single replicates, read-out: cAMP response (% Forskolin)
  remaining activity at 0.0001 µM: 97.9%
C3aR L30^1.39A; L30A, Log[JR14a (M)] -11, single replicates, read-out: cAMP response (% Forskolin)
  remaining activity at 10 pM: 98.1%
C3aR L30^1.39A; pIC50 (Replicate), L30^1.39A, individual replicates
  IC50: 8.91 nM and 6.92 nM
C3aR L30^1.39A; pIC50 ± SEM (Mean), L30^1.39A, mean of independent experiments
  IC50: 5.37 nM
C3aR L30^1.39A; read-out: pIC50 (Replicate) (converted)
  IC50: 2.51 nM
C3aR I98^3.28A
  Mean Diff. of pIC50, WT vs. I98A: 0.356
  ΔpIC50 ± SE of Diff.: -0.36 ± 0.02
C3aR I98^3.28A; I98A, Log[JR14a (M)] -8, single replicates, read-out: cAMP response (% Forskolin)
  remaining activity at 0.01 µM: 49.1%
C3aR I98^3.28A; I98A, Log[JR14a (M)] -9, single replicates, read-out: cAMP response (% Forskolin)
  remaining activity at 0.001 µM: 88.6%
C3aR I98^3.28A; I98A, Log[JR14a (M)] -10, single replicates, read-out: cAMP response (% Forskolin)
  remaining activity at 0.0001 µM: 95.5%
C3aR I98^3.28A; I98A, Log[JR14a (M)] -11, single replicates, read-out: cAMP response (% Forskolin)
  remaining activity at 10 pM: 93.5%
C3aR I98^3.28A; IC50, I98^3.28A, dose-response plot
  IC50: 9.13 nM
C3aR I98^3.28A; pIC50 (Replicate), I98^3.28A, individual replicates
  IC50: 6.17 nM and 11.5 nM and 9.77 nM
C3aR I98^3.28A; pIC50 ± SEM (Mean), I98^3.28A, mean of independent experiments
  IC50: 8.91 nM
